Target: EphB4 on CD4+ T cells isolated from the spleens of tumor-bearing mice (mouse) (UniProt P54761)
Test: cell-based or functional assay

Sequence of UniProt P54761 (P54761 16-987): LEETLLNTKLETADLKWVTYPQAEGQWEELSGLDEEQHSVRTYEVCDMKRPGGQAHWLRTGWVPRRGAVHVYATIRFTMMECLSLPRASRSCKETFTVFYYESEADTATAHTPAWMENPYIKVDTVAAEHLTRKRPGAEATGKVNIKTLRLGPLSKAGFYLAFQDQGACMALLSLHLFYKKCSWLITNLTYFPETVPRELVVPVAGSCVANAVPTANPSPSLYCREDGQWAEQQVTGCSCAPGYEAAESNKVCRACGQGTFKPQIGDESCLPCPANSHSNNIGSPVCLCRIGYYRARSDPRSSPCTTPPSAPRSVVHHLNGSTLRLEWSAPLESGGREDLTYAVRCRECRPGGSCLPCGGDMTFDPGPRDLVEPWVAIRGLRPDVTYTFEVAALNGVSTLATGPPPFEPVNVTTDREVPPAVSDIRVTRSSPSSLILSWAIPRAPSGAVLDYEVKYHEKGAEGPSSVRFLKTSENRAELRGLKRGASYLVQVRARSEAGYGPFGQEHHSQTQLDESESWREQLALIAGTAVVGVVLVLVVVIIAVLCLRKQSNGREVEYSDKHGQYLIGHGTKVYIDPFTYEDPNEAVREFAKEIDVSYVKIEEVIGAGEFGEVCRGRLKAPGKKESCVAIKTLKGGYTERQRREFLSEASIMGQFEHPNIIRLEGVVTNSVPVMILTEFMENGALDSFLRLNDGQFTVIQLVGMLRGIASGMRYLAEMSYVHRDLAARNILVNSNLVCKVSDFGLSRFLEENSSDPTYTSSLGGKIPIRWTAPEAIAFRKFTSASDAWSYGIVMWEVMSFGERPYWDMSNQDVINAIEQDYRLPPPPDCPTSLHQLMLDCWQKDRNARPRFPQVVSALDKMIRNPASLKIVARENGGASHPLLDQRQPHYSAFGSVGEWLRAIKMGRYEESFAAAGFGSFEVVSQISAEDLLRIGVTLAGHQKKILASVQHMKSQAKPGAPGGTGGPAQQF

fold decrease in Ki67 expressing Tregs (flow cytometry): 1.7 fold
Substance: recombinant ephrin-B2-Fc (Fc fusion)

From patent publication US20220249621A1
